The source of these data is patent US6043072A, “Nucleic acids encoding Taxus geranylgeranyl diphosphate synthase, and methods of use” (Washington State University Research Foundation, priority 1998, dated 2000).

As a reminder, the Km is the substrate concentration at which the rate is half of its maximum.

Substrate in series [1]: C=C(C)CCO[P@@](=O)(O)OP(=O)(O)O
The series can be described thus: purified protein, by the assay type. The following applies: other: double reciprocal plotting; remaining reactants at saturation.

Substrate in series [2]: CC(C)=CCC/C(C)=C/CC/C(C)=C/CO[P@@](=O)(O)OP(=O)(O)O
The series can be described thus: purified protein, by the assay type. The following applies: other: double reciprocal plotting; remaining reactants at saturation.

B1: T. canadensis GGPP synthase (Taxus canadensis) (protein)
chain: FDFNEYMKSKAVAVDAALDKAIPLEYPEKIHESMRYSLLAGGKRVRPALCIAACELVGGSQDLAMPTACAMEMIHTMSLIHDDLPCMDNDDFRRGKPTNHKVFGEDTAVLAGDALLSFAFEHIAVATSKTVPSDRTLRVISELGKTIGSQGLVGGQVVDITSEGDANVDLKTLEWIHIHKTAVLLECSVVSGGILGGATEDEIARIRRYARCVGLLFQVVDDILDVTKSSEELGKTAGKDLLTDKATYPKLMGLEKAKEFAAELATRAKEELSSFDQIKAAPLLGLADYIAFRQN
In the case of B1, the Km in series [1] was 7 µM; in series [2] it was 6 µM.
